US20260207766A1 (Bristol-Myers Squibb, published 2026)

T1: 6xHis-A3-B3 huCEACAM5 (human, UniProt P06731 501-685, N-linked glycans (seven predicted sites))
T1 construct: For cryo-EM it was expressed in Expi293F GnTI- cells; also called hCEACAM5-A3-B3 construct; human CEACAM5 A3-B3 domain protein
T1 sequence: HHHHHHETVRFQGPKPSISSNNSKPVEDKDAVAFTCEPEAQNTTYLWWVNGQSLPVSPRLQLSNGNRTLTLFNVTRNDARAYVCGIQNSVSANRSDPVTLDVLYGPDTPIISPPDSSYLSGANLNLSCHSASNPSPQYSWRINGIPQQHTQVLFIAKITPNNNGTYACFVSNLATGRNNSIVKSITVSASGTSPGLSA

T2: human CEACAM6 on HCT116 cells (human, UniProt P40199 35-320)
T2 construct: whole, on cells; also called HCT116-huCEACAM6
T2 sequence (looked up): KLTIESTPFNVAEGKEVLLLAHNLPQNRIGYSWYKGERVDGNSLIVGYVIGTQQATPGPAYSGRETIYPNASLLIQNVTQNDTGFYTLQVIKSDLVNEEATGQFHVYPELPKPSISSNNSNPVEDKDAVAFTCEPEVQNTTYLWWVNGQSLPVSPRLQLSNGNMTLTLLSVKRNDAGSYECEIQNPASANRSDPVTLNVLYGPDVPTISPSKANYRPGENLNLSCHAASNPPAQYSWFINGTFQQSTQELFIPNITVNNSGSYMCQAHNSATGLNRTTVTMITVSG

T3: human CEACAM5 on cells (human, UniProt P06731 35-685)
T3 construct: Endogenous on MKN45, Ls174T, BxPC-3; overexpressed on HCT116; also called huCEACAM5; HCT116-huCEACAM5
T3 sequence: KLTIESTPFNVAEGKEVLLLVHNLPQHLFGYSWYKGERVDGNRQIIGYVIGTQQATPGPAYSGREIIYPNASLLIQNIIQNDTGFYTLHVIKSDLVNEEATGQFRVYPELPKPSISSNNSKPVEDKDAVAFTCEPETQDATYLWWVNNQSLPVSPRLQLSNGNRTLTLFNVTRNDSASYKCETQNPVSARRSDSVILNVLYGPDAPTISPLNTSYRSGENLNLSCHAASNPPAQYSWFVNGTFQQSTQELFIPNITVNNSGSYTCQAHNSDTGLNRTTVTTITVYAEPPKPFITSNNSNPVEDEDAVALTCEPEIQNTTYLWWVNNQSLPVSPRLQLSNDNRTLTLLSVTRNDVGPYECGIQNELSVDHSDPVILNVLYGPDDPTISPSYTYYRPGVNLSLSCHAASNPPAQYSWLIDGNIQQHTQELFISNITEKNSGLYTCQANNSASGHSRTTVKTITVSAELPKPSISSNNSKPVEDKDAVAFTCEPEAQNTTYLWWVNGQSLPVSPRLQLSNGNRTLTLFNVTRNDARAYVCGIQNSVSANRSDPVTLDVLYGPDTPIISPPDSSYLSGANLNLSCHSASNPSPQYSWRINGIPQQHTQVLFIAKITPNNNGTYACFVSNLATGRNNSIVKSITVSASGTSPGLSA

T4: human CEACAM1 on CHO-S cells (human, UniProt P13688 35-526)
T4 construct: whole, on cells; also called CHO-S-huCEACAM1
T4 sequence (looked up): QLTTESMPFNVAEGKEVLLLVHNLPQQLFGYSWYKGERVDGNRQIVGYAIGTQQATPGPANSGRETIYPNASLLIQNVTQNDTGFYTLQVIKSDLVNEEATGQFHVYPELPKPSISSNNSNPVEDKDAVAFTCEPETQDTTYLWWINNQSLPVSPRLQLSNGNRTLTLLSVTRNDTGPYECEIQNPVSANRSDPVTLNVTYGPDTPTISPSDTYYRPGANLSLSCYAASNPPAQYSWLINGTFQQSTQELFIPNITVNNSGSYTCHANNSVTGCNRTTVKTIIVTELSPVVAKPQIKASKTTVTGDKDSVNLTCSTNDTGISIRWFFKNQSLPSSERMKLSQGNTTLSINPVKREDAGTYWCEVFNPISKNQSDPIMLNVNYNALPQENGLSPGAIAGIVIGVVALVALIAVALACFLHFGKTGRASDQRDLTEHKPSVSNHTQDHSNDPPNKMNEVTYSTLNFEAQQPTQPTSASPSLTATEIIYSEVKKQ


Columns and labels:
6xHis-A3-B3 huCEACAM5 [1] = target: T1, 6xHis-A3-B3 huCEACAM5; experiment: SPR Biacore 8K 37C, mAb captured on anti-human Fc, antigen analyte, 1:1 Langmuir fit
Description: SPR analyses were conducted at 37° C. using a Biacore 8K instrument primed with 1×HBSP+ running water and docked with a CM5 sensor chip equilibrated to room temperature, followed by re-priming of the instrument. The chip surface was activated by injecting an ethyl(dimethylaminopropyl) carbodiimide (EDC)/N-hydroxysuccinimide (NHS) mixture for 7 minutes at 10 μL/min. The activated chip surface was then immobilized with an anti-human Fc capture reagent (at 25 μg/mL in acetate pH 5 buffer) injected on the chip surface for 7 minutes at 10 μL/min to yield an immobilization level of about 9000 RU. The remaining chip surface was blocked by injecting ethanolamine for 7 minutes at 10 μL/min.
The kinetic data for anti-CEACAM5 mAb:CEACAM5 binding were fit to a 1:1 Langmuir binding with Rmax to provide estimates of the kinetic and affinity values for the corresponding interactions.

[2] = target: T2, human CEACAM6 on HCT116 cells; experiment: flow cytometry on HCT-116 (CEACAM-6) cells
human CEACAM5 on cells [3] = target: T3, human CEACAM5 on cells; experiment: FACS on MKN45 cells
[4] = target: T4, human CEACAM1 on CHO-S cells; experiment: flow cytometry, CHO-S cells overexpressing human CEACAM1
human CEACAM5 on cells [5] = target: T3, human CEACAM5 on cells; experiment: cell binding, MKN45 cells
human CEACAM5 on cells [6] = target: T3, human CEACAM5 on cells; experiment: FACS on LS174T cells
human CEACAM5 on cells [7] = target: T3, human CEACAM5 on cells; experiment: FACS on BxPC3 cells
6xHis-A3-B3 huCEACAM5 [8] = target: T1, 6xHis-A3-B3 huCEACAM5; experiment: cryo-EM of CEACAM5 A3-B3 with both Fabs
Description: Below is a description of the different steps and methods that were performed.
After the incubation period, 50 μl of complexing reaction solution was passed through a Bio-Spin 30 Size-exclusion chromatography column (30 kDa MWCO, BioRad) to remove any contaminants and Apo-CEACAM5. Prior to use, Bio-Spin 30 columns were equilibrated with 1×PBS, and samples were applied according to the manufacturer's protocol.

| Kd (6xHis-A3-B3 huCEACAM5 [1]) | binding result [2] | EC50 (human CEACAM5 on cells [3]) | binding result [4] | EC50 (human CEACAM5 on cells [5]) | EC50 (human CEACAM5 on cells [6]) | EC50 (human CEACAM5 on cells [7]) | binding result (6xHis-A3-B3 huCEACAM5 [8]) | Binder |
| --- | --- | --- | --- | --- | --- | --- | --- | --- |
| 129 nM | no binding (tested: 300 nM) | 2.2 nM | no binding | 33.8 nM | 1.7 nM | 1.8 nM |  | MBN001 (antibody, V domains shown, also called mAb MBN001; MBN001 parent) VH: QVQLVETGGGVVQPGRSLRLSCAASGITFSSHGMHWVRQSPGKGLEWVTFISYDGSYKSYVDSVKGRFAISRDNSKNTLYLQMNSLRPEDTAVYYCATGLTGTGAFDIWGQGTMVTVSS VL: not shown |
|  |  |  |  |  |  |  | binds | Fab of bin 2 mAb (Fab, V domains shown, also called anti-CEACAM5 bin2 mAb Fab) VH: QVQLQESGPGLVKPSGTLSLTCAVSGGSISSSDWWSWVRQPPGKGLEWIGEIYHQGSTNYNPSLKSRVTISVDKSKNQFSLKLSSVTAADTAVYYCARASSSGYYGHDVWGQGTTVTVSS VL: DIQLTQSPSFLSASVGDRVTITCRASQGISTYLAWYQQKPGKAPKFLIYAEKTLQSGVPSRFSGSGSGTEFTLTISSLQPEDFATYYCQQLASYPFTFGPGTKVDIKR |
